Results as given in publication PMC7093204 (Nature, 2020).

B1: Rsc8 (natural protein)
chain: MSDTEKDKDVPMVDSHEATEEPPTTSTNTPSFPHLAQEQAKEESATLGAEVAHKKINYEQEAQKLEEKALRFLAKQTHPVIIPSFASWFDISKIHEIEKRSNPDFFNDSSRFKTPKAYKDTRNFIINTYRLSPYEYLTITAVRRNVAMDVASIVKIHAFLEKWGLINYQIDPRTKPSLIGPSFTGHFQVVLDTPQGLKPFLPENVIKQEVEGGDGAEPQVKKEFPVNLTIKKNVYDSAQDFNALQDESRNSRQIHKVYICHTCGNESINVRYHNLRARDTNLCSRCFQEGHFGANFQSSDFIRLENNGNSVKKNWSDQEMLLLLEGIEMYEDQWEKIADHVGGHKRVEDCIEKFLSLPIEDNYIREVVGSTLNGKGGDSRDGSVSGSKLMECVNDAVQTLLQGDDKLGKVSDKSREISEKYIEESQAIIQELVKLTMEKLESKFTKLCDLETQLEMEKLKYVKESEKMLNDRLSLSKQILDLNKSLEELNVSKKLVLISEQVDSGIQLVEKDQEGDDEDGNTATGHGVKRVGKEGEEVGEGDSIAKLQPQVYKPWSL
B2: Sfh1 (natural protein)
chain: MSHQNQLIPQAYISNFHNRLTNEDDGIPIFTMAQQTRQHKRAKVVNYAEYDNDLFDEFNMNGSNFNNADTHYKDNAVSHENTPALTNGVTMDGSEYNVLENMNGADSIISNNKYDAGSNMVVESLSGLNSNNNASNGPSNKAQAQDIGNAVLPDLQDQHHNPFNILRYPKIRDTFINGKVVSPYRLNTDQETKANANSGEAIMIPITLDIEHMGHTIKDQFLWNYNDDSISPEEFASIYCKDLDMTSATLQTQIANIIKEQLKDLENIAATEIMSDLHVIINLTCNLQDRFFEDNFQWNLNDKSLTPERFATSIVQDLGLTREFIPLISQSLHETILKIKKDWVDGHLIQDHVPNDAAFGYLSGIRLDIDELGSNWCPRVEILTKEEIQKREIEKERNLRRLKRETDRLSRRGRRRLDDLETTMRM
B3: Rsc6 (natural protein)
chain: MVTQTNPVPVTYPTDAYIPTYLPDDKVSNLADLKKLIEMDSRLDLYLTRRRLDTSINLPTNTKTKDHPPNKEMLRIYVYNTTESSPRSDSGTPADSGKTTWTLRIEGKLLHESANGKHPFSEFLEGVAVDFKRLKPLGMGKKRKRDSSLSLPLNLQQPEYNDQDSTMGDNDNGEDEDSAEAESREEIVDALEWNYDENNVVEFDGIDIKRQGKDNLRCSITIQLRGVDGGKVQYSPNLATLIGMQTGSVNDAVYSIYKYILINNLFVTEQTEAQDGSNDAEDSSNENNNKNGAGDDDGVEGSTPKDKPELGEVKLDSLLQKVLDTNAAHLPLMNVVQTVNKLVSPLPPIILDYTIDLSKDTTYGATTLDVDVSHILHQPQPQPNLQKEEETDAEDTAKLREITKLALQLNSSAQKYQFFHELSLHPRETLTHYLWSSKQNELVLQGDQYFNEDAARTSDIYSNNNNDRSLMGNISLLYSQGRL

Tests used:
cryo-EM structure = biological target: the molecule itself; assay: cryo-EM structure
Rsc8 = biological target: B1; assay: cryo-EM structure

Binder	binding result (cryo-EM structure)	binding result (Rsc8)
B1	binds	
B2		binds
B3		binds
